In patent publication US20060241020A1, “Protein tyrosine phosphatase inhibitors” (Applied Research Systems ARS Holdings N.V., priority 2002, published 2006):

Experiment: pNPP hydrolysis, kinetic parameters
Assay type: biochemical
Details: generic substrate pNPP, 0-60 mM, pH 6.8, room temperature
Experimental: For pNPP hydrolysis, 200 ng of PTP was incubated with varing amounts of the generic substrate (0-60 mM) in assay buffer (50 mM Tris pH 6.8 and 2 mM DTT) in a total volume of 50 μl at room temperature. Plates were read at 405 nm and kinetic parameters were determined using a non linear regression programme (Graphpad, Prism®).

B1: Sap-1WT: wild-type PTP-Sap1 catalytic domain (GST fusion) tested on pNPP (protein)
chain: LKRRNKKKQQKPELRDLVFSSPGDIPAEDFADHVRKNERDSNCGFADEYQQLSLVGHSQSQMVASASENNAKNRYRNVLPYDWSRVPLKPIHEEPGSDYINASFMPGLWSPQEFIATQGPLPQTVGDFWRLVWEQQSHTLVMLTNCMEAGRVKCEHYWPLDSQPCTHGHLRVTLVGEEVMENWTVRELLLLQVEEQKTLSVRQFHYQAWPDHGVPSSPDTLLAFWRMLRQWLDQTMEGGPPIVHCSAGVGRTGTLIALDVLLRQLQSEGLLGPFSFVRKMRESRPLMVQTEAQYVFLHQCILRFLQQSAQAPAEKEVPYEDVENLIYENVAAIQAHKLEV
modifications: left off: a dimerising Fc or GST
notes: wild-type PTP-Sap1 catalytic domain (GST fusion) tested on pNPP
B1 showed a Km of 2660 µM.
